{
  "source": "paper PMC8757841",
  "origin": "cited, not measured here",
  "molecular_target": "Transferrin receptor (Rattus norvegicus) (UniProt Q99376)",
  "sequence (Q99376 whole entry)": "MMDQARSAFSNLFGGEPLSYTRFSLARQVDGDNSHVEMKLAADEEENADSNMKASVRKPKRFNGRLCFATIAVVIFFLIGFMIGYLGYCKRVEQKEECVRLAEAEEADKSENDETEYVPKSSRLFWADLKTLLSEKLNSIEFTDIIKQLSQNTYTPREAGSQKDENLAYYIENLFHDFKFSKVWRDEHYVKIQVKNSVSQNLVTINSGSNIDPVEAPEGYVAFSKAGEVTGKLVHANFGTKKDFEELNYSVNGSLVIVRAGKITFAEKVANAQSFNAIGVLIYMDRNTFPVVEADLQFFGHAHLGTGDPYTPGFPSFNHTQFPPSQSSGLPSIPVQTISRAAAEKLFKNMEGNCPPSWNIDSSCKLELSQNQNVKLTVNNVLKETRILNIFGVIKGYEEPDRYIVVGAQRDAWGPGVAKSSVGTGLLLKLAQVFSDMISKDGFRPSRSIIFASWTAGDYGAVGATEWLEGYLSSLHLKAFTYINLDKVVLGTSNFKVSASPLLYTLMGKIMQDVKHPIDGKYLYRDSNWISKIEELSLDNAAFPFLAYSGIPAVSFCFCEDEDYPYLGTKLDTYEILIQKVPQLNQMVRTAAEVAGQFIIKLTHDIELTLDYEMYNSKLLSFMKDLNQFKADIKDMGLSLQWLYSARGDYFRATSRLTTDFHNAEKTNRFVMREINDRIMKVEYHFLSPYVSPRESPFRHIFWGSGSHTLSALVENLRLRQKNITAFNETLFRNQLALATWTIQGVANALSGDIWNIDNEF",
  "data": [
    {"substance": "Transferrin (from UniProt P12346)", "values": [
      {"measurement": "Kd", "value": 5, "unit": "nM"}
    ]}
  ]
}
